We go through 1 molecule from CN114106161A (ANYUAN MEDICINE SCIENCE AND TECH SHANGHAI LIMITED COMPANY, dated 2022).

Assay [1] has as its target 刺突S-鼠Fc融合蛋白 (S-mFc) (SARS-CoV-2; mouse, UniProt P0DTC2 14-1213). Kind of assay: flow cytometry, blocking of S-mFc binding to 293T-ACE2 cells.
Assay [2] has as its target T1, SARS-CoV-2 S1蛋白 (ACRO Biosystems) (SARS-CoV-2, UniProt P0DTC2 16-685).
T1 construct: domain: S1; also called SARS-CoV-2S1抗原; 生物素化SARS-CoV-2S1
The assay can be described thus: BLI, biotinylated SARS-CoV-2 S1 on SA sensor, antibody as analyte, 1:1 fit.

In assay [3] the target is T1, SARS-CoV-2 S1蛋白 (ACRO Biosystems). Kind of assay: competition ELISA, S1 coated, competitor HRP-labelled hACE2-Fc.

B1: 人源化抗体hS1B-73-3 (antibody, V domains shown)
VH: EVQLVQSGAEVKKPGSSVKVSCKASGYAFTNFLIEWVREAPGQGLEWIGMINPGSGDTNYNEKFKGKATLTADKSTSTVYMELSSLRSEDTAVYFCARQLGLPGFVYWGRGTTVTVSS
VL: DIQMTQSPSSLSASVGDRVTITCKASQDINSYLTWLQQKPGKSPKTLIYRANRLVEGVPSRFSGSGSGQDFTLKISSLQPEDIATYYCLQHDEFPLTFGQGTKLEIKR
notes: also called 抗SARS-CoV-2S1 RBD人源化抗体hS1B-73-3
On to B1, for which, in assay [1], the IC50 was found to be 0.00433 µg/mL. In assay [2], this molecule came in with a Kd of 0.0207 nM, a koff of 2.22e-05 s⁻¹ and a kon of 1.07e+06 M⁻¹ s⁻¹. The molecule further yielded a 50% effective concentration (EC50) in assay [3] of 0.0254 µg/mL.
